Bridges are numbered along the chain shown (N, C = ends). Primed or numbered codes have the meaning given here. [ ]: non-standard residue; d: D form. 2Nal = N[C@@H](Cc1ccc2ccccc2c1)C(=O)O; Cit = NC(=O)NCCC[C@H](N)C(=O)O; Dab = NCC[C@H](N)C(=O)O; Pip′ = not defined here
Molecular target: human CXCR4 (human, UniProt P61073 1-352)
Experiment: cell-based or functional assay

Sequence of human CXCR4 (P61073 whole entry): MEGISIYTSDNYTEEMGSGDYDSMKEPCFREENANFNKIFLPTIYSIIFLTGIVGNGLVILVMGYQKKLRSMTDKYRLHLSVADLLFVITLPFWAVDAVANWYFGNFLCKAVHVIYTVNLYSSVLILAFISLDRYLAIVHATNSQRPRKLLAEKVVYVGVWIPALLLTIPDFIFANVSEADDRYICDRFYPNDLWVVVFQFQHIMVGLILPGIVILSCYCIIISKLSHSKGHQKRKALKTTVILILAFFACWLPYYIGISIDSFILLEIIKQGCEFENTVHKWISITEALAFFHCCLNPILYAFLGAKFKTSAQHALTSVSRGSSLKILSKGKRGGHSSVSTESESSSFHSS

Binder | IC50 (nM) Ca2+ assay (method 2) [nM] | IC50 (nM) Ca2+ assay (method 1) [nM] | IC50 (µM) Cell migration assay [µM]
cyclo(YR[Cit]SRG[dP]RRWNY[Cit]K[dP]P) (SMILES N=C(N)NCCC[C@@H]1NC(=O)[C@H](CO)NC(=O)[C@H](CCCNC(N)=O)NC(=O)[C@H](CCCNC(=N)N)NC(=O)[C@H](Cc2ccc(O)cc2)NC(=O)[C@@H]2CCCN2C(=O)[C@H]2CCCN2C(=O)[C@H](CCCCN)NC(=O)[C@H](CCCNC(N)=O)NC(=O)[C@H](Cc2ccc(O)cc2)NC(=O)[C@H](CC(N)=O)NC(=O)[C@H](Cc2c[nH]c3ccccc23)NC(=O)[C@H](CCCNC(=N)N)NC(=O)[C@H](CCCNC(=N)N)NC(=O)[C@H]2CCCN2C(=O)CNC1=O) [Example 151] | 4.2 | – | –
cyclo(YR[Cit]CRGGRR[2Nal]CY[Cit]K[dP]P) (disulfide 4-11; SMILES N=C(N)NCCC[C@@H]1NC(=O)CNC(=O)CNC(=O)[C@H](CCCNC(=N)N)NC(=O)[C@@H]2CSSC[C@H](NC(=O)[C@H](Cc3ccc4ccccc4c3)NC(=O)[C@H](CCCNC(=N)N)NC1=O)C(=O)N[C@@H](Cc1ccc(O)cc1)C(=O)N[C@@H](CCCNC(N)=O)C(=O)N[C@@H](CCCCN)C(=O)N1CCC[C@@H]1C(=O)N1CCC[C@H]1C(=O)N[C@@H](Cc1ccc(O)cc1)C(=O)N[C@@H](CCCNC(=N)N)C(=O)N[C@@H](CCCNC(N)=O)C(=O)N2) [Example 52] | – | 3.1 | 2.75
RRWCYQKGYXPYGYRXCRGP (D-Pro at P10; Cit at P16; disulfide Cys P4-Cys P17; backbone-cyclic via template Gly-LPro) [Example 158] | 250 | – | –
cyclo(YR[Cit]CRG[dP]RRYCYQK[dQ]P) (disulfide 4-11; SMILES N=C(N)NCCC[C@@H]1NC(=O)[C@@H]2CSSC[C@H](NC(=O)[C@H](Cc3ccc(O)cc3)NC(=O)[C@H](CCCNC(=N)N)NC(=O)[C@H](CCCNC(=N)N)NC(=O)[C@H]3CCCN3C(=O)CNC1=O)C(=O)N[C@@H](Cc1ccc(O)cc1)C(=O)N[C@@H](CCC(N)=O)C(=O)N[C@@H](CCCCN)C(=O)N[C@H](CCC(N)=O)C(=O)N1CCC[C@H]1C(=O)N[C@@H](Cc1ccc(O)cc1)C(=O)N[C@@H](CCCNC(=N)N)C(=O)N[C@@H](CCCNC(N)=O)C(=O)N2) [Example 149] | 1 | – | –
cyclo(RRWCYRKCYKGYCYRKCRG[dP]) (disulfide 8-13, 4-17) [Example 160] | 0.38 | – | –
cyclo(YR[Cit]VR[Cit]PRR[2Nal]FY[Cit]K[dP]P) (SMILES CC(C)[C@@H]1NC(=O)[C@H](CCCNC(N)=O)NC(=O)[C@H](CCCNC(=N)N)NC(=O)[C@H](Cc2ccc(O)cc2)NC(=O)[C@@H]2CCCN2C(=O)[C@H]2CCCN2C(=O)[C@H](CCCCN)NC(=O)[C@H](CCCNC(N)=O)NC(=O)[C@H](Cc2ccc(O)cc2)NC(=O)[C@H](Cc2ccccc2)NC(=O)[C@H](Cc2ccc3ccccc3c2)NC(=O)[C@H](CCCNC(=N)N)NC(=O)[C@H](CCCNC(=N)N)NC(=O)[C@@H]2CCCN2C(=O)[C@H](CCCNC(N)=O)NC(=O)[C@H](CCCNC(=N)N)NC1=O) [Example 31] | – | 1470 | –
cyclo(YR[Cit]VRV[dP]RR[2Nal]FY[Cit]K[dP]P) (SMILES CC(C)[C@@H]1NC(=O)[C@H](CCCNC(N)=O)NC(=O)[C@H](CCCNC(=N)N)NC(=O)[C@H](Cc2ccc(O)cc2)NC(=O)[C@@H]2CCCN2C(=O)[C@H]2CCCN2C(=O)[C@H](CCCCN)NC(=O)[C@H](CCCNC(N)=O)NC(=O)[C@H](Cc2ccc(O)cc2)NC(=O)[C@H](Cc2ccccc2)NC(=O)[C@H](Cc2ccc3ccccc3c2)NC(=O)[C@H](CCCNC(=N)N)NC(=O)[C@H](CCCNC(=N)N)NC(=O)[C@H]2CCCN2C(=O)[C@H](C(C)C)NC(=O)[C@H](CCCNC(=N)N)NC1=O) [Example 32] | – | 760 | –
RRYCYQKGYXPYGYRTCRGP (D-Pro at P10; disulfide Cys P4-Cys P17; backbone-cyclic via template Gly-LPro) [Example 159] | 118 | – | –
RRWCYQKGYXGYGYRXCRGX (Cit at P16; disulfide Cys P4-Cys P17; backbone-cyclic via template Gly-DPro) [Example 157] | 11.3 | – | –
cyclo(RRWCYQKCYKGYCYR[Cit]CRG[dP]) (disulfide 8-13, 4-17) [Example 155] | 0.46 | – | –
cyclo(RR[2Nal]CY[Cit]KCYKGYCYR[Cit]CRG[dP]) (disulfide 8-13, 4-17) [Example 154] | 9.3 | – | –
cyclo(YR[Cit]FRVPRR[2Nal]FY[Cit]K[dP]P) (SMILES CC(C)[C@@H]1NC(=O)[C@H](CCCNC(=N)N)NC(=O)[C@H](Cc2ccccc2)NC(=O)[C@H](CCCNC(N)=O)NC(=O)[C@H](CCCNC(=N)N)NC(=O)[C@H](Cc2ccc(O)cc2)NC(=O)[C@@H]2CCCN2C(=O)[C@H]2CCCN2C(=O)[C@H](CCCCN)NC(=O)[C@H](CCCNC(N)=O)NC(=O)[C@H](Cc2ccc(O)cc2)NC(=O)[C@H](Cc2ccccc2)NC(=O)[C@H](Cc2ccc3ccccc3c2)NC(=O)[C@H](CCCNC(=N)N)NC(=O)[C@H](CCCNC(=N)N)NC(=O)[C@@H]2CCCN2C1=O) [Example 28] | – | 2680 | –
RRWCYQKGYKGYGYRXCRGX (Cit at P16; disulfide Cys P4-Cys P17; backbone-cyclic via template Gly-DPro) [Example 156] | 49 | – | –
cyclo([Pip′]RYCYQK[dP]PYR[Cit]CRG[dP]) (disulfide 4-13) [Example 150] | 1.4 | – | –
cyclo(YR[Cit][Dab]RG[dP]RRWEY[Cit]K[dP]P) (lactam 4-11; SMILES N=C(N)NCCC[C@@H]1NC(=O)[C@@H]2CCNC(=O)CC[C@H](NC(=O)[C@H](Cc3c[nH]c4ccccc34)NC(=O)[C@H](CCCNC(=N)N)NC(=O)[C@H](CCCNC(=N)N)NC(=O)[C@H]3CCCN3C(=O)CNC1=O)C(=O)N[C@@H](Cc1ccc(O)cc1)C(=O)N[C@@H](CCCNC(N)=O)C(=O)N[C@@H](CCCCN)C(=O)N1CCC[C@@H]1C(=O)N1CCC[C@H]1C(=O)N[C@@H](Cc1ccc(O)cc1)C(=O)N[C@@H](CCCNC(=N)N)C(=O)N[C@@H](CCCNC(N)=O)C(=O)N2) [Example 152] | 4.2 | – | –
cyclo(YR[Cit]ERG[dP]RRW[Dab]Y[Cit]K[dP]P) (lactam 4-11; SMILES N=C(N)NCCC[C@@H]1NC(=O)[C@@H]2CCC(=O)NCC[C@H](NC(=O)[C@H](Cc3c[nH]c4ccccc34)NC(=O)[C@H](CCCNC(=N)N)NC(=O)[C@H](CCCNC(=N)N)NC(=O)[C@H]3CCCN3C(=O)CNC1=O)C(=O)N[C@@H](Cc1ccc(O)cc1)C(=O)N[C@@H](CCCNC(N)=O)C(=O)N[C@@H](CCCCN)C(=O)N1CCC[C@@H]1C(=O)N1CCC[C@H]1C(=O)N[C@@H](Cc1ccc(O)cc1)C(=O)N[C@@H](CCCNC(=N)N)C(=O)N[C@@H](CCCNC(N)=O)C(=O)N2) [Example 153] | 21.9 | – | –

From US20150087577A1 (POLYPHOR, published 2015)
